Legend:
[1] = target: human Siglec-7 on primary human monocyte-derived dendritic cells (human, UniProt Q9Y286 19-467); experiment: cell-based or functional assay
[2] = target: T1, histidine-tagged human Siglec-7 (NovoProtein) (human, UniProt Q9Y286 19-353); experiment: BLI, antibody captured
T1 construct: Bought protein; also called recombinant human Siglec-7; recombinant Siglec-7; not shown: histidine tag
Method in brief: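 Antibodies captured on anti-human or anti-mouse IgG Fc biosensors; His-tagged human Siglec-7 flowed at 0–100 nM (200 s association, 900 s dissociation). ka and kd from 1:1 multi-concentration fit; apparent KD = kd/ka.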

[3] = target: T1, histidine-tagged human Siglec-7 …; experiment: BLI (ForteBio), antibody captured
Experimental: In this assay, the humanized antibodies were compared directly to S7AB. Briefly, the antibodies were captured on anti-human or anti-mouse IgG Fc Biosensors (Pall ForteBio). Varying concentrations (0-100 nM) of histidine-tagged human Siglec-7 (NovoProtein) were then bound to the captured anti-Siglec-7 surface (200 s association time, 900 s dissociation time). Multi-concentration kinetic analysis was performed using a 1:1 interaction model to extract association and dissociation rate constants (kₐ and kd, respectively) for each antibody. Apparent affinity constants (KD) were calculated from the ratio kd/kₐ.

T1 sequence (Q9Y286 19-353 limits assumed): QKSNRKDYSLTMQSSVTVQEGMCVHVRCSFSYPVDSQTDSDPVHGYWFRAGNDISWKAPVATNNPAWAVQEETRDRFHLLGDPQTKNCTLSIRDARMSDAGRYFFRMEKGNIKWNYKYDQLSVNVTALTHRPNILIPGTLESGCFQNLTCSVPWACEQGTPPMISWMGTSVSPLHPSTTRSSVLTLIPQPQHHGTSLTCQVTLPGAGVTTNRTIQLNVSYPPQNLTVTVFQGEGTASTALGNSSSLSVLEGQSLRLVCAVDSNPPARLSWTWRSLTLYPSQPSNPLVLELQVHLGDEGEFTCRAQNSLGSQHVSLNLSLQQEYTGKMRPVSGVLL
human Siglec-7 on primary human monocyte-derived dendritic cells, sequence (Q9Y286 19-467): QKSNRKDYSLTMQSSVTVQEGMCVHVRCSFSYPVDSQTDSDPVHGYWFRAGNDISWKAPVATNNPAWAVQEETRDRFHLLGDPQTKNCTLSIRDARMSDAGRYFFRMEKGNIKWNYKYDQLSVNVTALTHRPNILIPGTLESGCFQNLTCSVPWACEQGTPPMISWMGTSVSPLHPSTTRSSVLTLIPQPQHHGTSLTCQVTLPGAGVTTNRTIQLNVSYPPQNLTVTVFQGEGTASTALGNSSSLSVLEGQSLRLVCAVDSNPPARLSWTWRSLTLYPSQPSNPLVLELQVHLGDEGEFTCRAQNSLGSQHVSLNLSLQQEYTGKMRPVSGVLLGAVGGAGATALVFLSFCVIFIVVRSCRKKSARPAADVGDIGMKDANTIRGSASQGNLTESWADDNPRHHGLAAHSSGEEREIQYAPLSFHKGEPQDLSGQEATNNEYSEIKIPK

Row | Binder | Fold increase in potency compared to AB-H8 [1] | Fold increase in potency compared to Chimeric Ab [1] | Maximal downregulation (% Siglec-7 remaining) [1] | Receptor downregulation, (EC50) (pM) [1] | Kd [2] | fold improvement over S7AB-H8 [2] | koff [2] | kon [2] | Kd [3] | koff [3] | kon [3]
1 | S7AB-H8.40 (antibody, V domains shown) VH: QVQLVQSGAEVKKPGASVKVSCKASGYAFTEAWMNWVRQAPGQGLEWIGRIFPGYGHTNYAQKFQGRATLTEDTSTSTAYMELSSLRSEDTAVYYCARDYSDYYFDYWGQGTLVTVSS VL: DIQMTQSPSSLSASVGDRVTITCRGSQDINTYLNWYQQKPGKAPKLLIYYTSRLHSGVPSRFSGSGSGTDYTLTISSLQPEDFATYYCQQGNVLPWTFGQGTKLEIK | 2.9 fold | 8.9 fold | 9.4% | 115 pM | 0.425 nM | 2.5 fold | 6.29e-05 s⁻¹ | 148000 M⁻¹ s⁻¹ |  |  | 
2 | S7AB-H8.41 (antibody, V domains shown) VH: QVQLVQSGAEVKKPGASVKVSCKASGYAFTETWMNWVRQAPGQGLEWIGRIFPGLGHTNYAQKFQGRATLTEDTSTSTAYMELSSLRSEDTAVYYCARDYSDYYFDYWGQGTLVTVSS VL: DIQMTQSPSSLSASVGDRVTITCRGSQDINTYLNWYQQKPGKAPKLLIYYTSRLHSGVPSRFSGSGSGTDYTLTISSLQPEDFATYYCQQGNILPWTFGQGTKLEIK | 3.2 fold | 9.5 fold | 9.6% | 108 pM | 0.531 nM | 2 fold | 9.12e-05 s⁻¹ | 172000 M⁻¹ s⁻¹ |  |  | 
3 | S7AB-H8.42 (antibody, V domains shown) VH: QVQLVQSGAEVKKPGASVKVSCKASGYAFTMAWMNWVRQAPGQGLEWIGRIFPGYGHTNYAQKFQGRATLTEDTSTSTAYMELSSLRSEDTAVYYCARDYSDYYFDYWGQGTLVTVSS VL: DIQMTQSPSSLSASVGDRVTITCRGSQDINTYLNWYQQKPGKAPKLLIYYTSRLHSGVPSRFSGSGSGTDYTLTISSLQPEDFATYYCQQGNILPWTFGQGTKLEIK | 5.4 fold | 16.4 fold | 3.3% | 62.6 pM | 0.126 nM | 8.3 fold | 2.42e-05 s⁻¹ | 191000 M⁻¹ s⁻¹ |  |  | 
4 | S7AB-H8.43 (antibody, V domains shown, also called S7AB-H.43) VH: QVQLVQSGAEVKKPGASVKVSCKASGYAFTGYWMNWVRQAPGQGLEWIGRIFPGLGHTNYAQKFQGRATLTEDTSTSTAYMELSSLRSEDTAVYYCARDYSDYYFDYWGQGTLVTVSS VL: DIQMTQSPSSLSASVGDRVTITCRGSQDINTYLNWYQQKPGKAPKLLIYYTSRLHSGVPSRFSGSGSGTDYTLTISSLQPEDFATYYCQQGNILPWTFGQGTKLEIK | 10.2 fold | 30.8 fold | 17.1% | 33.2 pM | 0.256 nM | 4.1 fold | 5.84e-05 s⁻¹ | 228000 M⁻¹ s⁻¹ |  |  | 
5 | S7AB-H8.44 (antibody, V domains shown) VH: QVQLVQSGAEVKKPGASVKVSCKASGYAFTAAWMNWVRQAPGQGLEWIGRIFPGLGHTNYAQKFQGRATLTEDTSTSTAYMELSSLRSEDTAVYYCARDYSDYYFDYWGQGTLVTVSS VL: DIQMTQSPSSLSASVGDRVTITCRGSQDINTYLNWYQQKPGKAPKLLIYYTSRLHSGVPSRFSGSGSGTDYTLTISSLQPEDFATYYCQQGNILPWTFGQGTKLEIK | 5.6 fold | 16.7 fold | 3.6% | 61.2 pM | 0.198 nM | 5.3 fold | 3.71e-05 s⁻¹ | 188000 M⁻¹ s⁻¹ |  |  | 
6 | S7AB-H8.45 (antibody, V domains shown) VH: QVQLVQSGAEVKKPGASVKVSCKASGYAFTEAWMNWVRQAPGQGLEWIGRIFPGYGHTNYAQKFQGRATLTEDTSTSTAYMELSSLRSEDTAVYYCARDYSDYYFDYWGQGTLVTVSS VL: DIQMTQSPSSLSASVGDRVTITCRGSQDINTYLNWYQQKPGKAPKLLIYYTSRLHSGVPSRFSGSGSGTDYTLTISSLQPEDFATYYCQQGNILPWTFGQGTKLEIK | 3.4 fold | 10.4 fold | 6.9% | 98.6 pM | 0.444 nM | 2.4 fold | 7.55e-05 s⁻¹ | 170000 M⁻¹ s⁻¹ |  |  | 
7 | S7AB (antibody, V domains shown, Parental mouse antibody; also called S7-10B5.1; mouse anti-human Siglec-7 antibody) VH: QVHLQQSGPELVKPGASVKISCKASGYAFTNCWMNWVRQRPGKGLDWIGRIFPGNGHTNYSGKFKDKATLTEDKSSSTAYMQLSSLTSEDSAVYFCARDYSDYYFDYWGQGTTLTVSS VL: DVQMTQTTSSLSASLGDRVTISCRASQDINTYLNWYQQKPDGTVKLLIYYTSRLHSGVPSRFSGSGSGTDYSLTISNLEQEDIATYFCQQGNTLPWTFGGGTKLEIK |  |  |  |  |  |  |  |  | 1.24 nM | 0.000242 s⁻¹ | 195000 M⁻¹ s⁻¹

From patent publication US20210246204A1 (Alector, published 2021)
